Experimental data: patent US12679878B2, “CRF2 receptor agonists and their use in therapy” (SANOFI, priority 2020, dated 2026)
Starred links: 1 amine or outer side, 2 acyl side, 3 side chain; linkers in the order of their positions; H or OH if unused. Non-standard residues stand in square brackets, D forms with d. Groups on a side chain read outwards from the residue. No end group written: not given here. *: point of attachment. C18 diacid = O=C(O)CCCCCCCCCCCCCCCCC(=O)*; γGlu = O=C(O)[C@H](CCC(=O)[*:2])N[*:1]; Palmitoyl = CCCCCCCCCCCCCCCC(=O)*; AEEA = NCCOCCOCC(=O)O; Aib = CC(C)(N)C(=O)O

B1: SEQ ID NO: 152 (peptide)
peptide: IVLSLDVPIKLK([AEEA-AEEA-γGlu-C18 diacid])QILLKQERQKK[Aib]REQAETNKRILERV-NH2
modifications: N-terminus assumed
SMILES: CC[C@H](C)[C@H](N)C(=O)N[C@H](C(=O)N[C@@H](CC(C)C)C(=O)N[C@@H](CO)C(=O)N[C@@H](CC(C)C)C(=O)N[C@@H](CC(=O)O)C(=O)N[C@H](C(=O)N1CCC[C@H]1C(=O)N[C@H](C(=O)N[C@@H](CCCCN)C(=O)N[C@@H](CC(C)C)C(=O)N[C@@H](CCCCNC(=O)COCCOCCNC(=O)COCCOCCNC(=O)CC[C@H](NC(=O)CCCCCCCCCCCCCCCCC(=O)O)C(=O)O)C(=O)N[C@@H](CCC(N)=O)C(=O)N[C@H](C(=O)N[C@@H](CC(C)C)C(=O)N[C@@H](CC(C)C)C(=O)N[C@@H](CCCCN)C(=O)N[C@@H](CCC(N)=O)C(=O)N[C@@H](CCC(=O)O)C(=O)N[C@@H](CCCNC(=N)N)C(=O)N[C@@H](CCC(N)=O)C(=O)N[C@@H](CCCCN)C(=O)N[C@@H](CCCCN)C(=O)NC(C)(C)C(=O)N[C@@H](CCCNC(=N)N)C(=O)N[C@@H](CCC(=O)O)C(=O)N[C@@H](CCC(N)=O)C(=O)N[C@@H](C)C(=O)N[C@@H](CCC(=O)O)C(=O)N[C@H](C(=O)N[C@@H](CC(N)=O)C(=O)N[C@@H](CCCCN)C(=O)N[C@@H](CCCNC(=N)N)C(=O)N[C@H](C(=O)N[C@@H](CC(C)C)C(=O)N[C@@H](CCC(=O)O)C(=O)N[C@@H](CCCNC(=N)N)C(=O)N[C@H](C(N)=O)C(C)C)[C@@H](C)CC)[C@@H](C)O)[C@@H](C)CC)[C@@H](C)CC)C(C)C)C(C)C
B2: SEQ ID NO: 17 (peptide)
peptide: IVLSLDVPIKLK([γGlu-Palmitoyl])KILLEQEKQKKQREQAETNKQILAQV-NH2
modifications: N-terminus assumed
SMILES: CCCCCCCCCCCCCCCC(=O)N[C@@H](CCC(=O)NCCCC[C@H](NC(=O)[C@H](CC(C)C)NC(=O)[C@H](CCCCN)NC(=O)[C@@H](NC(=O)[C@@H]1CCCN1C(=O)[C@@H](NC(=O)[C@H](CC(=O)O)NC(=O)[C@H](CC(C)C)NC(=O)[C@H](CO)NC(=O)[C@H](CC(C)C)NC(=O)[C@@H](NC(=O)[C@@H](N)[C@@H](C)CC)C(C)C)C(C)C)[C@@H](C)CC)C(=O)N[C@@H](CCCCN)C(=O)N[C@H](C(=O)N[C@@H](CC(C)C)C(=O)N[C@@H](CC(C)C)C(=O)N[C@@H](CCC(=O)O)C(=O)N[C@@H](CCC(N)=O)C(=O)N[C@@H](CCC(=O)O)C(=O)N[C@@H](CCCCN)C(=O)N[C@@H](CCC(N)=O)C(=O)N[C@@H](CCCCN)C(=O)N[C@@H](CCCCN)C(=O)N[C@@H](CCC(N)=O)C(=O)N[C@@H](CCCNC(=N)N)C(=O)N[C@@H](CCC(=O)O)C(=O)N[C@@H](CCC(N)=O)C(=O)N[C@@H](C)C(=O)N[C@@H](CCC(=O)O)C(=O)N[C@H](C(=O)N[C@@H](CC(N)=O)C(=O)N[C@@H](CCCCN)C(=O)N[C@@H](CCC(N)=O)C(=O)N[C@H](C(=O)N[C@@H](CC(C)C)C(=O)N[C@@H](C)C(=O)N[C@@H](CCC(N)=O)C(=O)N[C@H](C(N)=O)C(C)C)[C@@H](C)CC)[C@@H](C)O)[C@@H](C)CC)C(=O)O
B3: SEQ ID NO: 154 (peptide)
peptide: IVLSLDVPIGLK([AEEA-AEEA-γGlu-C18 diacid])QILLEQEKQEKEKQQAETNKRILERV-NH2
modifications: N-terminus assumed
SMILES: CC[C@H](C)[C@H](N)C(=O)N[C@H](C(=O)N[C@@H](CC(C)C)C(=O)N[C@@H](CO)C(=O)N[C@@H](CC(C)C)C(=O)N[C@@H](CC(=O)O)C(=O)N[C@H](C(=O)N1CCC[C@H]1C(=O)N[C@H](C(=O)NCC(=O)N[C@@H](CC(C)C)C(=O)N[C@@H](CCCCNC(=O)COCCOCCNC(=O)COCCOCCNC(=O)CC[C@H](NC(=O)CCCCCCCCCCCCCCCCC(=O)O)C(=O)O)C(=O)N[C@@H](CCC(N)=O)C(=O)N[C@H](C(=O)N[C@@H](CC(C)C)C(=O)N[C@@H](CC(C)C)C(=O)N[C@@H](CCC(=O)O)C(=O)N[C@@H](CCC(N)=O)C(=O)N[C@@H](CCC(=O)O)C(=O)N[C@@H](CCCCN)C(=O)N[C@@H](CCC(N)=O)C(=O)N[C@@H](CCC(=O)O)C(=O)N[C@@H](CCCCN)C(=O)N[C@@H](CCC(=O)O)C(=O)N[C@@H](CCCCN)C(=O)N[C@@H](CCC(N)=O)C(=O)N[C@@H](CCC(N)=O)C(=O)N[C@@H](C)C(=O)N[C@@H](CCC(=O)O)C(=O)N[C@H](C(=O)N[C@@H](CC(N)=O)C(=O)N[C@@H](CCCCN)C(=O)N[C@@H](CCCNC(=N)N)C(=O)N[C@H](C(=O)N[C@@H](CC(C)C)C(=O)N[C@@H](CCC(=O)O)C(=O)N[C@@H](CCCNC(=N)N)C(=O)N[C@H](C(N)=O)C(C)C)[C@@H](C)CC)[C@@H](C)O)[C@@H](C)CC)[C@@H](C)CC)C(C)C)C(C)C
B4: SEQ ID NO: 156 (peptide)
peptide: IVLSLDVPIGLK([AEEA-AEEA-γGlu-C18 diacid])QILLKQERQKK[Aib]REQAETNAQILAQV-NH2
modifications: N-terminus assumed
SMILES: CC[C@H](C)[C@H](N)C(=O)N[C@H](C(=O)N[C@@H](CC(C)C)C(=O)N[C@@H](CO)C(=O)N[C@@H](CC(C)C)C(=O)N[C@@H](CC(=O)O)C(=O)N[C@H](C(=O)N1CCC[C@H]1C(=O)N[C@H](C(=O)NCC(=O)N[C@@H](CC(C)C)C(=O)N[C@@H](CCCCNC(=O)COCCOCCNC(=O)COCCOCCNC(=O)CC[C@H](NC(=O)CCCCCCCCCCCCCCCCC(=O)O)C(=O)O)C(=O)N[C@@H](CCC(N)=O)C(=O)N[C@H](C(=O)N[C@@H](CC(C)C)C(=O)N[C@@H](CC(C)C)C(=O)N[C@@H](CCCCN)C(=O)N[C@@H](CCC(N)=O)C(=O)N[C@@H](CCC(=O)O)C(=O)N[C@@H](CCCNC(=N)N)C(=O)N[C@@H](CCC(N)=O)C(=O)N[C@@H](CCCCN)C(=O)N[C@@H](CCCCN)C(=O)NC(C)(C)C(=O)N[C@@H](CCCNC(=N)N)C(=O)N[C@@H](CCC(=O)O)C(=O)N[C@@H](CCC(N)=O)C(=O)N[C@@H](C)C(=O)N[C@@H](CCC(=O)O)C(=O)N[C@H](C(=O)N[C@@H](CC(N)=O)C(=O)N[C@@H](C)C(=O)N[C@@H](CCC(N)=O)C(=O)N[C@H](C(=O)N[C@@H](CC(C)C)C(=O)N[C@@H](C)C(=O)N[C@@H](CCC(N)=O)C(=O)N[C@H](C(N)=O)C(C)C)[C@@H](C)CC)[C@@H](C)O)[C@@H](C)CC)[C@@H](C)CC)C(C)C)C(C)C
B5: SEQ ID NO: 155 (peptide)
peptide: IVLSLDVPIGLK([AEEA-AEEA-γGlu-C18 diacid])QILLEQEKQEKEKQQAEKNKRILERV-NH2
modifications: N-terminus assumed
SMILES: CC[C@H](C)[C@H](N)C(=O)N[C@H](C(=O)N[C@@H](CC(C)C)C(=O)N[C@@H](CO)C(=O)N[C@@H](CC(C)C)C(=O)N[C@@H](CC(=O)O)C(=O)N[C@H](C(=O)N1CCC[C@H]1C(=O)N[C@H](C(=O)NCC(=O)N[C@@H](CC(C)C)C(=O)N[C@@H](CCCCNC(=O)COCCOCCNC(=O)COCCOCCNC(=O)CC[C@H](NC(=O)CCCCCCCCCCCCCCCCC(=O)O)C(=O)O)C(=O)N[C@@H](CCC(N)=O)C(=O)N[C@H](C(=O)N[C@@H](CC(C)C)C(=O)N[C@@H](CC(C)C)C(=O)N[C@@H](CCC(=O)O)C(=O)N[C@@H](CCC(N)=O)C(=O)N[C@@H](CCC(=O)O)C(=O)N[C@@H](CCCCN)C(=O)N[C@@H](CCC(N)=O)C(=O)N[C@@H](CCC(=O)O)C(=O)N[C@@H](CCCCN)C(=O)N[C@@H](CCC(=O)O)C(=O)N[C@@H](CCCCN)C(=O)N[C@@H](CCC(N)=O)C(=O)N[C@@H](CCC(N)=O)C(=O)N[C@@H](C)C(=O)N[C@@H](CCC(=O)O)C(=O)N[C@@H](CCCCN)C(=O)N[C@@H](CC(N)=O)C(=O)N[C@@H](CCCCN)C(=O)N[C@@H](CCCNC(=N)N)C(=O)N[C@H](C(=O)N[C@@H](CC(C)C)C(=O)N[C@@H](CCC(=O)O)C(=O)N[C@@H](CCCNC(=N)N)C(=O)N[C@H](C(N)=O)C(C)C)[C@@H](C)CC)[C@@H](C)CC)[C@@H](C)CC)C(C)C)C(C)C
B6: SEQ ID NO: 153 (peptide)
peptide: Ac-IVLSLDVPIGLK([AEEA-AEEA-γGlu-C18 diacid])QILLEQEKQEKEKQQAETNAQILAQV-NH2
SMILES: CC[C@H](C)[C@H](NC(C)=O)C(=O)N[C@H](C(=O)N[C@@H](CC(C)C)C(=O)N[C@@H](CO)C(=O)N[C@@H](CC(C)C)C(=O)N[C@@H](CC(=O)O)C(=O)N[C@H](C(=O)N1CCC[C@H]1C(=O)N[C@H](C(=O)NCC(=O)N[C@@H](CC(C)C)C(=O)N[C@@H](CCCCNC(=O)COCCOCCNC(=O)COCCOCCNC(=O)CC[C@H](NC(=O)CCCCCCCCCCCCCCCCC(=O)O)C(=O)O)C(=O)N[C@@H](CCC(N)=O)C(=O)N[C@H](C(=O)N[C@@H](CC(C)C)C(=O)N[C@@H](CC(C)C)C(=O)N[C@@H](CCC(=O)O)C(=O)N[C@@H](CCC(N)=O)C(=O)N[C@@H](CCC(=O)O)C(=O)N[C@@H](CCCCN)C(=O)N[C@@H](CCC(N)=O)C(=O)N[C@@H](CCC(=O)O)C(=O)N[C@@H](CCCCN)C(=O)N[C@@H](CCC(=O)O)C(=O)N[C@@H](CCCCN)C(=O)N[C@@H](CCC(N)=O)C(=O)N[C@@H](CCC(N)=O)C(=O)N[C@@H](C)C(=O)N[C@@H](CCC(=O)O)C(=O)N[C@H](C(=O)N[C@@H](CC(N)=O)C(=O)N[C@@H](C)C(=O)N[C@@H](CCC(N)=O)C(=O)N[C@H](C(=O)N[C@@H](CC(C)C)C(=O)N[C@@H](C)C(=O)N[C@@H](CCC(N)=O)C(=O)N[C@H](C(N)=O)C(C)C)[C@@H](C)CC)[C@@H](C)O)[C@@H](C)CC)[C@@H](C)CC)C(C)C)C(C)C

The binders below were run against human corticotropin-releasing factor 2α (CRF2 α receptor) (human), Q13324 (assay: cell-based or functional assay).
Sequence of human corticotropin-releasing factor 2α (CRF2 α receptor) (human), Q13324 (Q13324 20-411): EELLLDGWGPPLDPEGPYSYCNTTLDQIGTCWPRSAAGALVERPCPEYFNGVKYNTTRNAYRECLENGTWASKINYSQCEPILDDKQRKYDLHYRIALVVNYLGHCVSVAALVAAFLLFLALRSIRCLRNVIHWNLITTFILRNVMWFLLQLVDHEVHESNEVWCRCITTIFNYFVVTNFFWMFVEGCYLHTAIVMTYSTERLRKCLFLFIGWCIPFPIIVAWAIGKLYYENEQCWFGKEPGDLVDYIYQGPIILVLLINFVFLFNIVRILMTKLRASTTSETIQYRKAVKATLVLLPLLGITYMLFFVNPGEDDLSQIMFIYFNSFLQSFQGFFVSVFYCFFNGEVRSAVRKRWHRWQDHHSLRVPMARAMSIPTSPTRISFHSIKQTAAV

Binder | EC50 [nM], 0% HSA [nM] | EC50 [nM], 0.1% HSA [nM]
B1 | 0.09 | 4.94
B2 | 0.02 | –
B3 | 15 | 15.3
B4 | 1.06 | –
B5 | 8.87 | –
B6 | 33.7 | –
